Experimental data taken from US20050095674A1, “Cannabinoid receptor interacting proteins and methods of use” (priority 2003, published 2005).

Columns and labels:
[1] = target: rat CB1 cannabinoid receptor, wild type (rat) (UniProt P20272); test: cell-based or functional assay
[2] = target: T1, amino acids at positions 418-472 of the human cannabinoid receptor (CB1) fused to the GALA DNA binding domain (human, UniProt P04386 1-147; P21554 418-472); test: yeast two-hybrid, beta-galactosidase colour
T1 construct: Yeast two-hybrid bait in Y190 cells; also called bait plasmid

CB1 receptors = target: T2, CB1 receptors (Rattus norvegicus, UniProt P20272); test: Whole-cell patch clamp of Ca2+ currents in SCG neurons microinjected with rCB1 and rat CRIP1a; assay type: cell-based
T2 construct: expressed in transfected cells

[3] = target: T3, CB1-464 truncated receptor (Rattus norvegicus, UniProt P20272); test: Whole-cell patch clamp of Ca2+ currents in SCG neurons expressing the CB1-464 truncated receptor; assay type: cell-based; settings: coexpression of CRIP1a with CB1-464 truncated receptor
T3 construct: expressed in transfected cells

[4] = target: T4, C-terminus (amino acids 418-472) of the CB1 cannabinoid receptor (Homo sapiens, UniProt P21554); test: Yeast two hybrid, domains of CRIP1b against the CB1 C-terminus; assay type: binding; settings: CRIP1b parts tested alone and in combination
T4 construct: expressed in transfected cells; host or cells: Y190 yeast cells
Experimental: A human brain cDNA library (Clontech) containing 5×10^6 independent clones with an average insert size of 1.5 kb fused to the GALA activation domain was cotransformed into Y 190 yeast cells with a bait plasmid consisting of the amino acids at positions 418-472 of the human cannabinoid receptor (CB1) fused to the GALA DNA binding domain. An overnight culture of Y190 cells was diluted to an OD600 of 0.08 (20 ml/reaction) and incubated at 30° C. until an OD600 of 0.2-0.4. The cells were washed in […] of water and resuspended in […] of 100 mM LiAc, 10 mM Tris-HCl, pH 7.5, and 1 mM EDTA (LiAc/TE). Single stranded herring testis DNA (200 μg), 20 μg of bait plasmid, 20 μg of carrier plasmid, and 1.2 ml of 40% polyethyleneglycol/LiAc/TE were added to the cells, followed by incubation at 30° C. for 30 minutes at 225 rpm. […] After incubation of the plates at 30° C. for 3-5 days, β-galactosidase activity of the colonies was assessed by lifting colonies onto filters, lysing the colonies by freezing in liquid nitrogen, and exposing the filters to 20 mg/ml X-gal in phospate-containing buffer.
To determine which domains of CRIP1b interact with the C-terminus (amino acids 418-472) of the CB1 cannabinoid receptor, yeast two hybrid experiments were performed. […] When each exon was tested alone, no interaction was detected (FIGS. 5A, 5C, and 5E). […]

[5] = target: T5, GST alone coupled to Glutathione Sepharose-4B (UniProt P08515 1-218 = GST); test: affinity chromatography on Glutathione Sepharose-4B, SDS-PAGE and S-tag Western blot
T5 construct: the lane descriptions speak of glutathione Sepharose only; also called GST column; glutathione sepharose only column

[6] = target: T6, C-terminal tail of CB1 (amino acids 464-473 of rat CB1) (Rattus norvegicus, UniProt P20272); test: Yeast two-hybrid, CB1 receptor interaction site with CRIP1b; assay type: binding
T6 construct: C-terminal tail of CB1 (amino acids 464-473 of rat CB1); expressed in transfected cells; host or cells: yeast (strain not restated for this experiment)
Source text: The yeast two-hybrid technique was used to determine the CB1 receptor interaction site with CRIP1b. The C-terminus of the CB1 receptor contains separate domains critical for desensitization and internalization (Hsieh et al., 1999; Jin et al., 1999).

GST-CB1 (418-472) = target: T7, GST-CB1 (418-472) (Homo sapiens, UniProt P21554); test: In vitro pull-down assay (GST affinity chromatography) of bacterially expressed proteins; assay type: binding
T7 construct: encoding amino acids at position 418-472 of the CB1 receptor into the pGEX-4T-1 expression vector; made in house; host or cells: bacteria; BL21(DE3) E. coli is stated for CRIP1b only
Experimental: To confirm the interaction between the CB1 cannabinoid receptor and the interacting protein CRIP1b, in vitro pull-down assays of bacterially expressed proteins were performed. A GST fusion peptide was created between GST and a peptide of the CB1 receptor by cloning the polynucleotide sequence encoding amino acids at position 418-472 of the CB1 receptor into the pGEX-4T-1 expression vector. This GST fusion peptide was expressed and purified using standard protocols. GST alone and purified GST/CB1 fusion peptide were coupled to a first and second Glutathione Sepharose-4B column, respectively, as per standard protocols (Smith and Johnson, 1988, Gene, 67:31-40).
Polymerase chain reaction (PCR) was used to amplify the amino acids at positions 34-128 of CRIP1b in the pCT2 shuttle vector with EcoRI and XhoI restriction endonuclease sites. The PCR product was inserted in-frame into a pET30C expression plasmid harboring an S-tag (Novagen, Wis.). The resulting plasmid was transformed into BL21(DE3) E. coli cells, and these cells were induced to express CRIP1b by the introduction of isopropyl β-D-thiogalactopyranoside.
The bacteria were lysed in a buffer containing 50 mM Tris-Cl (pH 8.0), 1 mM EDTA, 100 mM NaCl, phenylmethylsulfonylfluoride (PMSF) (8 μl of 50 mM PMSF per gram of bacterial pellet). […]

T2 sequence (P20272 whole entry): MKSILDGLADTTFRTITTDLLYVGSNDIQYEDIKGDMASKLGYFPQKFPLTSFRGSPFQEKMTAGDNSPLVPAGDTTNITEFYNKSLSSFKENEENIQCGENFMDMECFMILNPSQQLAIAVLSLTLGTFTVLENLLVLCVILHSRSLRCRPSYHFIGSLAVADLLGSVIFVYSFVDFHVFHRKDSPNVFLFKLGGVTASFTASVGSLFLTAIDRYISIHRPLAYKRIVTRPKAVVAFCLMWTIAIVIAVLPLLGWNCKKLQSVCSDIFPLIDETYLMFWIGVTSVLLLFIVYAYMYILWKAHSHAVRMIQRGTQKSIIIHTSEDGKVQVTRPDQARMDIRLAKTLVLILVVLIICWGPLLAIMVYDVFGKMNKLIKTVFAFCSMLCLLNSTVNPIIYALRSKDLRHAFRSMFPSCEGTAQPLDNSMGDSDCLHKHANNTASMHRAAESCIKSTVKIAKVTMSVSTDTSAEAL
T4 sequence (P21554 418-472): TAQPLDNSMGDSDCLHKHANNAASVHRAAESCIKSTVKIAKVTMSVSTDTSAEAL
T7 sequence (P21554 418-472): as above
T5 sequence (P08515 whole entry): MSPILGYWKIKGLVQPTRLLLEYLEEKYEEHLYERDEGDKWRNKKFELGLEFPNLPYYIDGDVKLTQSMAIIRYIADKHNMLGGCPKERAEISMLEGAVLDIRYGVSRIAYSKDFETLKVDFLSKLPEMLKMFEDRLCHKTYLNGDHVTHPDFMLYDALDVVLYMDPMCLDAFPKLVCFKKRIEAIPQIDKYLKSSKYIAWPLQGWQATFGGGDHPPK
T3 sequence (P20272 1-464 limits assumed): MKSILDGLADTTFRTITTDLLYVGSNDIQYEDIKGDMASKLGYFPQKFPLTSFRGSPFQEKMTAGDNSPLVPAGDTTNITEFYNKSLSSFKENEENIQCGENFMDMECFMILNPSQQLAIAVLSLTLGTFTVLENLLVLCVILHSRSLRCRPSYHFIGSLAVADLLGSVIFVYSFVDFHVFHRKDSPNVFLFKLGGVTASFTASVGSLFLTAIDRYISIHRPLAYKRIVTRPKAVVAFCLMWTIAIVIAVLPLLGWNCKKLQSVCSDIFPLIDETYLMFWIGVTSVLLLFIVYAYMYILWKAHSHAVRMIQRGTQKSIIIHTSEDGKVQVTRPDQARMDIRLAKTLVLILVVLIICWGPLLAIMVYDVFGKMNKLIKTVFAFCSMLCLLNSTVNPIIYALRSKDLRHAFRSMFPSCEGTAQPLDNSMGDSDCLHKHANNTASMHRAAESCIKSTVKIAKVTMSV

Molecule: rat CRIP1a (from UniProt Q5M7A7 1-164)
- Ca^2+ current facilitation ratio [1]: 1.26

B1: CRIP1b exon 2 (amino acids 61-110 of SEQ ID NO:2) (other, not shown: large carriers)
chain: NISIGGVLVPLELKSKEPDGDRVVYTGTYDTEGVTPTKSGERQPIQITMP
notes: Yeast two-hybrid construct
- binding result [2]: no binding

B2: CRIP1a: CB1 receptor interacting protein 1a cloned from rat brain cDNA, 164 amino acids, SEQ ID NO:7 (protein, listed as Rattus sp.)
chain: MGDLPGIVRLSIALRIQPNDGPVFFKVDGQRFGQNRTIKLLTGSSYKVEVKIKPTTLQVENISIGGVLVPLELKCKEPDGERVVYTGIYDTEGVAPTKSGERQPIQITMPFTDIGTFETVWQVKFYNYHKRDHCQWGSPFSVIEYECKPNETRSLMWVNKESFL
- Ca2+ current facilitation ratio (CB1 receptors; SCG neurons expressing CB1 receptors co-expressed with CRIP1a, 1.46±0.08 with CB1 alone): 1.26±0.03
- effect on agonist-induced (WIN55,212-2) inhibition of the Ca2+ current (CB1 receptors; SCG neurons expressing both CB1 and CRIP1a): had no effect on the agonist-induced inhibition of the Ca^2+ current
- effect on SR141716-induced increase of Ca2+ current (constitutive activity of CB1) (CB1 receptors; co-expression of CRIP1a with CB1 receptors in SCG neurons): significantly inhibited the effect of SR141716
- effect on SR141716-induced increase of Ca2+ current (CB1 receptors; expression of CRIP1a alone, without CB1): had no effect
- effect on SR141716-induced increase of Ca2+ current [3]: did not significantly inhibit effect of SR141716

B3: CRIP1b exon 1 and exon 2: Exon 1 (amino acids 34-60 of SEQ ID NO:2) and exon 2 (amino acids 61-110) in combination (protein, listed as Homo sapiens)
chain: QNRTIKLLTGSSYKVEVKIKPSTLQVENISIGGVLVPLELKSKEPDGDRVVYTGTYDTEGVTPTKSGERQPIQITMP
- interaction in yeast two hybrid [4]: positive interaction

B4: S-tagged CRIP1b (amino acids at positions 34-128) expressed from pET30C in BL21(DE3) E. coli (other)
chain: QNRTIKLLTGSSYKVEVKIKPSTLQVENISIGGVLVPLELKSKEPDGDRVVYTGTYDTEGVTPTKSGERQPIQITMPECLEQRPQEISLTYECEE
notes: also called CB1-IP1; CRIP1b lysate; not shown: vector-encoded leader of pET30C with the S-tag
- interaction in yeast two hybrid [4]: enhanced
- binding result [5]: no binding

B5: CRIP1b: CB1 Receptor Interacting Protein 1b, 128 amino acid human polypeptide, SEQ ID NO:2; amino acids 34-128 used in pull-down (protein, listed as Homo sapiens)
chain: MGDLPGLVRLSIALRTQPNDGPVFYKVDGQRFGQNRTIKLLTGSSYKVEVKIKPSTLQVENISIGGVLVPLELKSKEPDGDRVVYTGTYDTEGVTPTKSGERQPIQITMPECLEQRPQEISLTYECEE
- interaction in yeast two-hybrid with the most distal 9 amino acids of the CB1 receptor ([6]; minimal CB1 domain tested): strong interaction
- interaction in yeast two-hybrid with the CB1 desensitization and internalization domains ([6]; separate C-terminal domains of CB1): neither of these domains interacted strongly
- pull-down by GST-CB1 (418-472) on glutathione-Sepharose 4B (GST-CB1 (418-472); S-tagged CRIP1b (amino acids 34-128) bacterial lysate): pulled down
- binding to glutathione Sepharose-4B matrix without CB1 fragment (control) (GST-CB1 (418-472); S-tagged CRIP1b bacterial lysate): did not bind to glutathione Sepharose-4B on its own
